According to publication PMC12583656, “Conserved interfaces mediate multiple protein–protein interactions in a prokaryotic metabolon” (Molecular Systems Biology, 2025):

T1: FolK, purified protein (E. coli, UniProt P26281 1-159)
T1 construct: FolK of E. coli (encoded by the gene folK); Expression and purification are not described
T1 sequence: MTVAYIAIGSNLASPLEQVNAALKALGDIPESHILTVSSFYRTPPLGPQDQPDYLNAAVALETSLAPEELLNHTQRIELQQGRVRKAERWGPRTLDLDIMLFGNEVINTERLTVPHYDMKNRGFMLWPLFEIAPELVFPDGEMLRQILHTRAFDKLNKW


Columns and labels:
[1] = biological target: adenylate kinase (Adk), split-YFP fusion (E. coli) (UniProt P69441); assay: split reporter (BiFC, NanoBiT); split monomeric EYFP (155/156) in living E. coli BW27783; NYFP fusion IPTG-induced, CYFP fusion arabinose-induced (0.2% arabinose, 1 mM IPTG), 30 °C 4-5 h; mean fluorescence intensity (MFI) of 30,000 cells by flow cytometry; both configurations measured, the higher value used; inducers also titrated for three pairs
Sequence of adenylate kinase (Adk), split-YFP fusion (E. coli) (P69441 whole entry, the tested form may be a part): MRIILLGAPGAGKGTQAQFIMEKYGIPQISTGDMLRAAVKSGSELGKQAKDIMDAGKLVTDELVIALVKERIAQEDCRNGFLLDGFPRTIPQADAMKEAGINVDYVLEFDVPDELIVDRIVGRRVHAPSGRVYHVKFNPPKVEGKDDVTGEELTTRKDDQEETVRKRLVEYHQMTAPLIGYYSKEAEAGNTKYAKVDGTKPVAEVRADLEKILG

FolK, purified protein = biological target: T1, FolK, purified protein; assay: Raman spectroscopy; titration: DHFR 7.5-50 µM, FolK fixed at 15 µM; area of the interaction-specific peak at ~1663 cm^-1 against DHFR concentration, hyperbolic fit; conditions: both partners purified

Molecule	MFI (mean YFP fluorescence intensity) [1]	Kd (FolK, purified protein)
dihydrofolate reductase (DHFR, FolA), split-YFP fusion (from UniProt P0ABQ4 1-159) (enzyme)	641	–
DHFR, wild type, purified protein (enzyme, E. coli, dihydrofolate reductase (DHFR, FolA) of E. coli; Expression and purification are not described; also called WT DHFR; WT-DHFR) MISLIAALAVDRVIGMENAMPWNLPADLAWFKRNTLNKPVIMGRHTWESIGRPLPGRKNIILSSQPGTDDRVTWVKSVDEAIAACGDVPEIMVIGGGRVYEQFLPKAQKLYLTHIDAEVEGDTHFPDYEPDDWESVFSEFHDADAQNSHSYCFEILERR	–	22 µM
N23V DHFR, purified protein (enzyme, E. coli, dihydrofolate reductase (DHFR) of E. coli with one substitution; as m28; Expression and purification are not described; also called N23V mutant of DHFR) MISLIAALAVDRVIGMENAMPWVLPADLAWFKRNTLNKPVIMGRHTWESIGRPLPGRKNIILSSQPGTDDRVTWVKSVDEAIAACGDVPEIMVIGGGRVYEQFLPKAQKLYLTHIDAEVEGDTHFPDYEPDDWESVFSEFHDADAQNSHSYCFEILERR	–	5.1 µM
D132H DHFR, purified protein (enzyme, E. coli, dihydrofolate reductase (DHFR) of E. coli with one substitution; as m28; Expression and purification are not described; also called D132H mutant of DHFR) MISLIAALAVDRVIGMENAMPWNLPADLAWFKRNTLNKPVIMGRHTWESIGRPLPGRKNIILSSQPGTDDRVTWVKSVDEAIAACGDVPEIMVIGGGRVYEQFLPKAQKLYLTHIDAEVEGDTHFPDYEPDHWESVFSEFHDADAQNSHSYCFEILERR	–	8.1 µM
D144N DHFR, purified protein (enzyme, E. coli, dihydrofolate reductase (DHFR) of E. coli with one substitution; as m28; Expression and purification are not described; also called D144N mutant of DHFR) MISLIAALAVDRVIGMENAMPWNLPADLAWFKRNTLNKPVIMGRHTWESIGRPLPGRKNIILSSQPGTDDRVTWVKSVDEAIAACGDVPEIMVIGGGRVYEQFLPKAQKLYLTHIDAEVEGDTHFPDYEPDDWESVFSEFHDANAQNSHSYCFEILERR	–	10 µM
